Changes are numbered by the printed parent chain. In names and notes the source's numbering stands. Each block holds one binder with its values, some of them ahead of it.
Experiments:
[1] = molecular target: linear diubiquitin (Boston Biochem) (Homo sapiens (Human), UniProt P0CG48 1-152); test: western blot, 1 µg/mL IgG
[2] = molecular target: T1, K63-linked diubiquitin (Boston Biochem) (Homo sapiens (Human), UniProt P0CG48 1-76, isopeptide bond between the C-terminus of one ubiquitin and Lys63 of the other); test: western blot
T1 construct: Two ubiquitin units; also called K63 diUb
Protocol: Non-specific binding sites on the membranes were blocked by incubation in 5% milk in PBST for 1 hour at 25° C. with shaking. […] The membranes were washed three times in PBST with shaking. The IgGs were detected by incubating the membrane in a 1:10,000 dilution of a goat anti-human Fc fragment-specific IR Dye 800CW-conjugated secondary antibody (Rockland Immunochemicals) in 5% milk in PBST for 30 minutes at 25° C. with shaking. The membranes were then washed three times in PBST followed by one wash in PBS.

binding result [1]: binds
B1: 1F11/2H5/3F5 triple mutant IgG (antibody, name in Kabat numbering, V domains shown)
VH: EVQLVESGGGLVQPGGSLRLSCAASGFTFSNTYISWVRQAPGKGLEWVASITPSSGQTDYADSVKGRFTISADTSKNTAYLQMNSLRAEDTAVYYCARTWLLRWVMDYWGQGTLVTVSS
VL: DIQMTQSPSSLSASVGDRVTITCRASQDVSTAVAWYQQKPGKAPKLLIYSAKFLYSGVPSRFSGSGSGTDFTLTISSLQPEDFATYYCQQSYTNPPTFGQGTKVEIK
notes: S52K put into the 2H5 light chain, paired with the 3F5 heavy chain; human kappa IgG1

binding result [1]: binds
B2: 1F11/Y102L IgG (antibody, V domains shown)
VH: B1 VH with Q57S, Y108L
VL: B1 VL with N94T
notes: Human kappa IgG1

binding result [2]: no binding
B3: 1F11 IgG (antibody, V domains shown)
VH: B1 VH with Q57S
VL: B1 VL with N94T

binding result [1]: binds
B4: 3F5/Y102L IgG (antibody, name in Kabat numbering, V domains shown)
VH: B1 VH with Y108L
VL: B1 VL with K52S, N94T
notes: Human kappa IgG1

binding result [1]: binds
B5: 1F11/2C11/3F5 triple mutant IgG (antibody, name in Kabat numbering, V domains shown)
VH: B1 VH
VL: B1 VL with N94Q
notes: S52K put into the 2C11 light chain, paired with the 3F5 heavy chain; human kappa IgG1

binding result [1]: binds
B6: 1F11/Y102L T110A IgG (antibody, name in Kabat numbering, V domains shown)
VH: B1 VH with Q57S, Y108L, T116A
VL: B1 VL with N94T
notes: Human kappa IgG1

binding result [1]: binds
B7: 3F5/Y102L T110A IgG (antibody, name in Kabat numbering, V domains shown)
VH: B1 VH with Y108L, T116A
VL: B1 VL with K52S, N94T
notes: Human kappa IgG1

From US20250243265A1 (published 2025)
